Results reported in PMC12004451, “Characterization of the Two-Domain Peptide Binding Mechanism of the Human CGRP Receptor for CGRP and the Ultrahigh Affinity ssCGRP Variant” (Biochemistry, 2025).
Values joined by “and” are separate entries in the source; they are usually repeats but may differ in a detail not shown here. Identical values can stand only once. Like-named read-outs stand apart in the source and are kept apart here. One block for each compound: values may come before it. Ends that are not written are not given here. Peptide text beside a SMILES is read from it. * marks the point of attachment. 5TAMRA = CN(C)c1ccc2c(c1)Oc1cc(N(C)C)ccc1C21OC(=O)c2cc(C(=O)*)ccc21

Experiments:
[1] = molecular target: T1, CGRP receptor (Nluc-CLR:RAMP1) (Homo sapiens, UniProt O60894+Q16602); experiment: nanoBRET association kinetics of TAMRA probes; assay type: binding; conditions: association kinetics, 25 °C, mean ± SEM, n=3
T1 construct: N-terminally Nanoluciferase (NLuc)-tagged CLR (pcDNA3.1(+)sec/NanoLuc-GSGIS-CLR.23-461); Wild-type CLR and RAMP expression plasmids were obtained from cDNA.org; sec (vector secretion signal before NanoLuc) (N); expressed in transfected cells; host or cells: COS-7 cells, membrane preparation
Procedure: After 2 days, the cells were washed with PBS and harvested with ice-cold PBS + 5 mM EDTA. The cells were pelleted in a centrifuge at 1000g for 5 min at 4 °C and resuspended in a hypotonic buffer (25 mM NaHEPES pH 7.5, 2 mM MgCl2, 1 mM EDTA, and 1× EDTA-free PIERCE protease inhibitor tablet). After resuspension, cells were homogenized with an Ultra Turrax for 30 s at 10,000 rpm followed by a 10 min incubation. Cell debris was pelleted at 800g for 10 min and the supernatant was transferred to ultracentrifuge tubes and centrifuged at 100,000g for 1 h. Membranes were resuspended in a wash buffer (25 mM NaHEPES pH 7.5, 250 mM NaCl, 2 mM MgCl2, 1 mM EDTA, and 1× protease inhibitor tablet). The homogenization and ultracentrifugation were repeated once more and the membranes were resuspended in storage buffer (25 mM NaHEPES pH 7.5, 25 mM NaCl, 2 mM MgCl2, 10% v/v glycerol, and 1× protease inhibitor tablet). The resuspended membranes were homogenized, aliquoted, and flash frozen in liquid nitrogen for storage at -80 °C. Total protein was quantitated using the DC protein assay (BioRad) per the manufacturer's instructions. The concentration of NLuc-CLR was determined by comparing the membrane prep luminescence to a standard curve using purified NLuc enzyme (Promega; […]). […] Costar 3912). […] The observed association rates (kobs) were plotted against probe concentration and the data was analyzed by linear regression. The kon and koff were obtained as the slope and y-intercept, respectively.

[2] = molecular target: T1, CGRP receptor (Nluc-CLR:RAMP1); experiment: nanoBRET dissociation kinetics of TAMRA probes; assay type: binding
Procedure: After 2 days, the cells were washed with PBS and harvested with ice-cold PBS + 5 mM EDTA. The cells were pelleted in a centrifuge at 1000g for 5 min at 4 °C and resuspended in a hypotonic buffer (25 mM NaHEPES pH 7.5, 2 mM MgCl2, 1 mM EDTA, and 1× EDTA-free PIERCE protease inhibitor tablet). After resuspension, cells were homogenized with an Ultra Turrax for 30 s at 10,000 rpm followed by a 10 min incubation. Cell debris was pelleted at 800g for 10 min and the supernatant was transferred to ultracentrifuge tubes and centrifuged at 100,000g for 1 h. Membranes were resuspended in a wash buffer (25 mM NaHEPES pH 7.5, 250 mM NaCl, 2 mM MgCl2, 1 mM EDTA, and 1× protease inhibitor tablet). The homogenization and ultracentrifugation were repeated once more and the membranes were resuspended in storage buffer (25 mM NaHEPES pH 7.5, 25 mM NaCl, 2 mM MgCl2, 10% v/v glycerol, and 1× protease inhibitor tablet). The resuspended membranes were homogenized, aliquoted, and flash frozen in liquid nitrogen for storage at -80 °C. Total protein was quantitated using the DC protein assay (BioRad) per the manufacturer's instructions. The concentration of NLuc-CLR was determined by comparing the membrane prep luminescence to a standard curve using purified NLuc enzyme (Promega; […]). The total protein concentration was 0.91 mg/mL and the NLuc-CLR was 7.35 nM. For dissociation kinetics, the membranes and probe in binding buffer were incubated in a 96-well white plate (Corning; Costar 3912) followed by furimazine addition at 1× for 5 min (75 μL volume). […] The buffer control defined the stability of the signal. […] Unlabeled […](8-37) (4×; 10 μM) or binding buffer was loaded into the injectors and injected into the plate, which was read for 4 h. […](8-37) (4×; 1 μM) or binding buffer was loaded into the injectors and injected into the plate, which was read for 1 h. The BRET ratio 610/460 was plotted against time and the membrane only control was subtracted. The dissociation data were normalized to their corresponding buffer control injections as 100% (100*value/baseline) to account for signal decay with time. The normalized dissociation curves were fit to a one-phase (dashed line) (https://www.graphpad.com/guides/prism/latest/curve-fitting/reg_exponential_[…]) or a two-phase (solid line) (https://www.graphpad.com/guides/prism/latest/curve-fitting/reg_exponential_[…]) exponential decay models in GraphPad Prism to determine the koff.

[3] = molecular target: NLuc-CLR:RAMP1 membranes with 30 μM purified sumo-miniGs (G protein-coupled state of the CGRPR) (UniProt Q16602); experiment: FRET or BRET; nanoBRET equilibrium saturation binding; as the uncoupled format but with 30 μM purified sumo-miniGs (G protein coupled state); 4 h; room temperature
[4] = molecular target: NLuc-CLR:RAMP1 (human CGRP receptor, CGRPR), membrane preparation (human) (UniProt Q16602); experiment: FRET or BRET; nanoBRET association kinetics; membranes injected into 2-fold serial dilutions of TAMRA probe; 25 °C; one-phase association fits, kobs against probe concentration by linear regression (kon slope, koff intercept); Kd calculated as koff/kon
[5] = molecular target: NLuc-CLR:RAMP1 (human CGRP receptor, CGRPR), membrane preparation (human) (UniProt Q16602)
[6] = molecular target: NLuc-CLR:RAMP1 (human CGRP receptor, CGRPR), membrane preparation (human) (UniProt Q16602); experiment: FRET or BRET; nanoBRET competition association kinetics, simultaneous addition of 20 nM CGRP(27-37)*-TAMRA and unlabeled (27-37) peptide; 25 °C; Motulsky-Mahan equation with a signal decay term; Kd calculated as koff/kon
[7] = molecular target: T1, CGRP receptor (Nluc-CLR:RAMP1); experiment: nanoBRET equilibrium competition binding, Nluc-CLR:RAMP1 membranes; conditions: 8 h, room temperature, Cheng-Prusoff, mean ± SEM, n=3
Procedure: After 2 days, the cells were washed with PBS and harvested with ice-cold PBS + 5 mM EDTA. The cells were pelleted in a centrifuge at 1000g for 5 min at 4 °C and resuspended in a hypotonic buffer (25 mM NaHEPES pH 7.5, 2 mM MgCl2, 1 mM EDTA, and 1× EDTA-free PIERCE protease inhibitor tablet). After resuspension, cells were homogenized with an Ultra Turrax for 30 s at 10,000 rpm followed by a 10 min incubation. Cell debris was pelleted at 800g for 10 min and the supernatant was transferred to ultracentrifuge tubes and centrifuged at 100,000g for 1 h. Membranes were resuspended in a wash buffer (25 mM NaHEPES pH 7.5, 250 mM NaCl, 2 mM MgCl2, 1 mM EDTA, and 1× protease inhibitor tablet). The homogenization and ultracentrifugation were repeated once more and the membranes were resuspended in storage buffer (25 mM NaHEPES pH 7.5, 25 mM NaCl, 2 mM MgCl2, 10% v/v glycerol, and 1× protease inhibitor tablet). The resuspended membranes were homogenized, aliquoted, and flash frozen in liquid nitrogen for storage at -80 °C. Total protein was quantitated using the DC protein assay (BioRad) per the manufacturer's instructions. The concentration of NLuc-CLR was determined by comparing the membrane prep luminescence to a standard curve using purified NLuc enzyme (Promega; […]). […] The Cheng-Prusoff correction[30] was used to calculate the Ki from the IC50.

[8] = molecular target: NLuc-CLR:RAMP1 (human CGRP receptor, CGRPR), membrane preparation (human) (UniProt Q16602); experiment: FRET or BRET; nanoBRET dissociation kinetics; membranes preincubated with probe (1 nM ssCGRP(8-37)-TAMRA or 10 nM AM2/IMD(8-47)-TAMRA), dissociation started by injection of excess unlabeled ssCGRP(8-37); 25 °C; normalised to buffer control; two-phase exponential decay
[9] = molecular target: NLuc-CLR:RAMP1 (human CGRP receptor, CGRPR), membrane preparation (human) (UniProt Q16602); experiment: FRET or BRET; nanoBRET equilibrium saturation binding; 3-fold serial dilutions of TAMRA probe with NLuc-CLR:RAMP1 membranes (0.01 mg/mL total protein, 0.08 nM NLuc-CLR) and 50 μM GTPγS (uncoupled state); 2 h or 4 h; room temperature; 25 mM NaHEPES pH 7.4, […] NaCl, 5 mM KCl, 1 mM KH2PO4, 3 mM MgSO4, 2 mM CaCl2, 1 mg/mL FAF-BSA, 50 μg/mL saponin; one-site specific binding fit
[10] = molecular target: NLuc-CLR:RAMP1 (human CGRP receptor, CGRPR) in COS-7 membranes (human) (UniProt Q16602); experiment: FRET or BRET; nanoBRET association kinetics of TAMRA probe on NLuc-CLR:RAMP1 COS-7 membranes, 25 C; kobs against probe concentration, linear regression; Kd calculated as koff/kon
[11] = molecular target: NLuc-CLR:RAMP1 (human CGRP receptor, CGRPR) in COS-7 membranes (human) (UniProt Q16602); experiment: FRET or BRET; nanoBRET equilibrium saturation binding of TAMRA probe to NLuc-CLR:RAMP1 COS-7 membranes (0.08 nM NLuc-CLR), G protein uncoupled state with 50 uM GTPgammaS, room temperature, 25 mM NaHEPES pH 7.4, […] NaCl; one-site specific binding fit
[12] = 1/koff slow, two-phase dissociation, read-out: Residence time slow

Compound: CC(C)C[C@H](NC(=O)CNC(=O)[C@H](C)NC(=O)[C@H](CC(C)C)NC(=O)[C@H](CCCNC(=N)N)NC(=O)[C@H](Cc1c[nH]cn1)NC(=O)[C@@H](NC(=O)[C@@H](N)C(C)C)[C@@H](C)O)C(=O)N[C@@H](CC(C)C)C(=O)N[C@@H](CO)C(=O)N[C@@H](CCCNC(=N)N)C(=O)N[C@@H](CO)C(=O)NCC(=O)NCC(=O)N[C@H](C(=O)N[C@H](C(=O)N[C@@H](CCCCN)C(=O)N[C@@H](CC(N)=O)C(=O)N[C@@H](CCCCNC(=O)c1ccc2c(c1)C(=O)OC21c2ccc(N(C)C)cc2Oc2cc(N(C)C)ccc21)C(=O)N[C@@H](Cc1ccccc1)C(=O)N[C@H](C(=O)N1CCC[C@H]1C(=O)N[C@H](C(=O)N[C@@H](CC(=O)O)C(=O)N[C@H](C(=O)NCC(=O)N1CCC[C@H]1C(=O)N[C@@H](Cc1c[nH]c2ccccc12)C(=O)N[C@@H](CO)C(=O)N[C@@H](Cc1ccccc1)C(N)=O)C(C)C)[C@@H](C)O)C(C)C)C(C)C)C(C)C [ssCGRP(8-37)-TAMRA, αCGRP(8-37) N26K-TAMRA/N31D/S34P/K35W/A36S] (H-VTHRLAGLLSRSGGVVKNK(5TAMRA)FVPTDVGPWSF-NH2; N-terminus assumed)
kon ([1]; kobs vs probe concentration, slope of linear regression, fit of first 10 min (full 1 h 15 min for ssCGRP(8-37)-TAMRA)): 3.62e+06 M⁻¹ s⁻¹
koff ([1]; y-intercept of kobs vs probe concentration): 0.0003 s⁻¹
residence time ([2]; 1/koff fast, two-phase dissociation, read-out: Residence time fast): 19.1 ± 1.9 min
residence time [2, 12]: 75.7 ± 3.49 min
t1/2 fast ([2]; ln 2/koff fast, two-phase dissociation): 13.25 ± 1.32 min and 13 min
t1/2 slow ([2]; ln 2/koff slow, two-phase dissociation): 52.45 ± 2.42 min and 52 min
Percent fast ([2]; share of the fast component, two-phase dissociation): 25.6 ± 3.5% and 25.6%
koff ([2]; two-phase exponential decay, same conditions as koff fast, mean ± SEM, n=3): 0.000222 s⁻¹

Compound: VTHRLAGLLSRSGGVVKNNFVPTDVGPWSF-NH2 [ssCGRP(8-37)]
Ki ([7]; G protein coupled state (30 μM sumo-miniGs), 3 nM AM2/IMD(8-47)-TAMRA probe, read-out: Ki + mGs): 0.6 ± 0.05 nM
Ki ([7]; G protein uncoupled state (50 μM GTPγS), 30 nM AM2/IMD(8-47)-TAMRA probe, read-out: Ki + GTPγS): 0.43 ± 0.02 nM
residence time [2, 12]: 76 min
affinity (summary, both receptor states): 0.5 nM

Compound: αCGRP(8-37) (peptide)
apparent melting temperature of LMNG/CHS-solubilised MBP-CLR-EGFP:MBP-RAMP1 heterodimer, native PAGE thermostability assay (ligand-free 38.2 °C) [5]: 43.6 °C

Results, then the compound that gave them:

Kd [3]: 6.5 nM
Kd [4]: 8.1 nM
half-life [4]: 1.6 min
Compound: AM2/IMD(8-47)-TAMRA (peptide)

apparent melting temperature of LMNG/CHS-solubilised MBP-CLR-EGFP:MBP-RAMP1 heterodimer, native PAGE thermostability assay (ligand-free 38.2 °C) [5]: 39.8 °C
half-life [6]: 0.06 min
Compound: CGRP(27-37) (peptide)

Kd [4]: 0.085 nM
half-life [4]: 38 min
koff [4]: 0.0003 s⁻¹
kon [4]: 3.62e+06 M⁻¹ s⁻¹
half-life of the fast component [8]: 13 min
half-life of the slow component [8]: 52 min
koff fast [8]: 0.053 min^–1
koff slow [8]: 0.013 min^–1
residence time (1/koff slow) [8]: 76 min
residence time of the fast component [8]: 19 min
Kd [9]: 0.4 nM
Compound: αCGRP(8-37) N26K-TAMRA/N31D/S34P/K35W/A36S (peptide)

Kd [10]: 22.5 nM
Kd [11]: 28.7 nM
Kd [4]: 22.5 nM
half-life [4]: 0.183 min
koff [4]: 0.0635 s⁻¹
kon [4]: 2.75e+06 M⁻¹ s⁻¹
Kd [9]: 28.7 nM
Compound: αCGRP(27-37) N31D/S34P/K35-TAMRA/A36S/F37Y (peptide)
